Assay [1] concerns the target recombinant mature human GDF15 dimer, N-glyco-engineered variant (R198N and G200T), Twin-Strep tagged (human) (UniProt Q99988). The experiment in a line: SPR. A general note: SPR reads the build-up and loss of mass on a sensor chip optically.
Assay [2] concerns the target T1, recombinant mature human GDF15 dimer, N-glyco-engineered variant (R198N and G200T), Twin-Strep tagged (human, UniProt Q99988 198-308, R198N | G200T).
T1 construct: mature human GDF15, residues 198–308, N-glyco-engineered variant (R198N and G200T); no cleavage step is described (eluted with desthiobiotin, then SEC); also called Twin-Strep-GDF15 dimer; growth differentiation factor-15; source: Expi293F, transfected, purified from supernatant (Strep-Tactin-XT, SEC)
T1 sequence (looked up): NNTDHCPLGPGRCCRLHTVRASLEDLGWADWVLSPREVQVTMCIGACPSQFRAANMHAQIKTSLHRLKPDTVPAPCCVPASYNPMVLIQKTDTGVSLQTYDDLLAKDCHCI
Briefly: SPR; Biacore T200; GDF15 dimer immobilised on CM5 chip by amine coupling (10 mM sodium acetate, pH 5.5); HBS-EP+ (0.01 M HEPES pH 7.4, 0.15 M NaCl, 3 mM EDTA, 0.05% P20); analytes 5-100 nM, 300 s association, 300 s dissociation, 30 μl/min; two-state reaction model. The conditions noted are these: both partners purified.

In assay [3] the target is T2, recombinant mature human GDF15 dimer, N-glyco-engineered variant (R198N and G200T), Twin-Strep tagged (human, UniProt Q99988 198-308, R198N | G200T).
T2 sequence: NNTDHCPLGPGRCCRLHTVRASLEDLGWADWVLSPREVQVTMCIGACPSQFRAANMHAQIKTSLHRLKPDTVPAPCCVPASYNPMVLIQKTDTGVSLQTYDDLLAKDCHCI
Briefly: SPR.

Assay [4] concerns the target T1, recombinant mature human GDF15 dimer, …. Briefly: SPR; Biacore T200; GDF15 dimer immobilised on CM5 chip by amine coupling; HBS-EP+; analyte 5-50 nM in the figure; 1:1 binding model; apparent (avidity of the Fc dimer). The conditions noted are these: both partners purified.

As usually defined, the koff is the rate constant with which the complex falls apart. In the case of ponsegromab, in assay [1], the Kd turned out to be 0.0802 nM and the dissociation rate constant (koff) is 2.24e-05 s⁻¹.

B1: human GFRAL D2 domain (residues 115–217) (domain or fragment, UniProt Q6UXV0 115-217, looked up)
chain: WNLTTRSHHGFKGMWSCLEVAEACVGDVVCNAQLASYLKACSANGNPCDLKQCQAAIRFFYQNIPFNIAQMLAFCDCAQSDIPCQQSKEALHSKTCAVNMVPP
notes: human GFRAL (glial cell-derived neurotrophic factor family receptor alpha-like), D2 domain, residues 115–217; the expressed construct as residues 115–217; also called hGFRAL D2; initial scaffold; source: Expi293F, transfected, purified (protein A, on-resin thrombin cleavage, SEC); not shown: Fc, C-terminal, cleaved
As to B1, the Kd in assay [2] is 90.4 nM.

B2: SGA2-4-Fc (Fc-fused SGA2-4 binder, homodimeric decoy receptor) (Fc fusion)
chain: VTVFEALDAIIADPQSNAALAAHLKAVAALPADATKAQVDAIYDAFLAQLPAEVRAKVLAAKPDPTNPDEIQLYNQLRGYDKL
modifications: Homodimer through a C-terminal human IgG Fc (isotype and limits not given). The Fc, thrombin site and 6xHis tag are left out; the Fc only provides bivalency/avidity. Expressed in mammalian cells.
In the case of B2, the koff in assay [3] worked out at 7.16e-05 s⁻¹. The Kd in assay [4] was determined as 0.081 nM.

The record behind these values is publication PMC13234300, “De novo and scaffold-based design of GDF15 binders for cancer cachexia diagnostics and therapeutics” (Experimental & Molecular Medicine, 2026).
